# Patent US20240226314A1 (Sanofi, published 2024)
# Numbering of substitutions follows the chain as printed.
# T1: His-tagged cynomolgus monkey TfR ectodomain (cyTFRC_89_760; mature protein) (cynomolgus monkey (Macaca fascicularis), UniProt Q5RDH6 89-760 (Pongo abelii entry))
# T1 construct: also called cTfR; cTfR ectodomain
# T1 chain: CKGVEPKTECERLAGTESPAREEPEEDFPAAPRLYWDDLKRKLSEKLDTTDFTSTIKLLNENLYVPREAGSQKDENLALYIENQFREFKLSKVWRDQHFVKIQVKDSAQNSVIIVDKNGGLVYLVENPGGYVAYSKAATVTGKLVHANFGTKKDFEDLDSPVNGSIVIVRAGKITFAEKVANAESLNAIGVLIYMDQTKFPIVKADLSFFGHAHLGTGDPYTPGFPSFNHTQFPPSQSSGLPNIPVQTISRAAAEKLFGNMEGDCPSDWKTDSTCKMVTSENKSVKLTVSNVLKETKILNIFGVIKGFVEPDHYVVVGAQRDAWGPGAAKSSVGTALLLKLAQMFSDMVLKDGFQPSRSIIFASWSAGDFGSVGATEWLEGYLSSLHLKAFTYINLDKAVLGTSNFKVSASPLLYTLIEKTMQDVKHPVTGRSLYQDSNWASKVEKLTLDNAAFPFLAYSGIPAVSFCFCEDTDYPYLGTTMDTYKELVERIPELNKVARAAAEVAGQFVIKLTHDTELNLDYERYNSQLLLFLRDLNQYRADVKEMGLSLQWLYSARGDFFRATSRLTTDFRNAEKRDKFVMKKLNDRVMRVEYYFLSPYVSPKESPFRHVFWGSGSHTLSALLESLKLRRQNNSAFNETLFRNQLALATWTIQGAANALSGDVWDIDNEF
# T2: cTfR expressed on 300.19 cells (SEQ ID NO: 2) (cynomolgus monkey, UniProt Q5RDH6 1-760 (Pongo abelii entry))
# T2 construct: Murine pre-B cell line 300.19, stably transfected with a plasmid expressing cTfR; also called cynomolgus TfR; cTfR-expressing 300.19 cells
# T2 chain: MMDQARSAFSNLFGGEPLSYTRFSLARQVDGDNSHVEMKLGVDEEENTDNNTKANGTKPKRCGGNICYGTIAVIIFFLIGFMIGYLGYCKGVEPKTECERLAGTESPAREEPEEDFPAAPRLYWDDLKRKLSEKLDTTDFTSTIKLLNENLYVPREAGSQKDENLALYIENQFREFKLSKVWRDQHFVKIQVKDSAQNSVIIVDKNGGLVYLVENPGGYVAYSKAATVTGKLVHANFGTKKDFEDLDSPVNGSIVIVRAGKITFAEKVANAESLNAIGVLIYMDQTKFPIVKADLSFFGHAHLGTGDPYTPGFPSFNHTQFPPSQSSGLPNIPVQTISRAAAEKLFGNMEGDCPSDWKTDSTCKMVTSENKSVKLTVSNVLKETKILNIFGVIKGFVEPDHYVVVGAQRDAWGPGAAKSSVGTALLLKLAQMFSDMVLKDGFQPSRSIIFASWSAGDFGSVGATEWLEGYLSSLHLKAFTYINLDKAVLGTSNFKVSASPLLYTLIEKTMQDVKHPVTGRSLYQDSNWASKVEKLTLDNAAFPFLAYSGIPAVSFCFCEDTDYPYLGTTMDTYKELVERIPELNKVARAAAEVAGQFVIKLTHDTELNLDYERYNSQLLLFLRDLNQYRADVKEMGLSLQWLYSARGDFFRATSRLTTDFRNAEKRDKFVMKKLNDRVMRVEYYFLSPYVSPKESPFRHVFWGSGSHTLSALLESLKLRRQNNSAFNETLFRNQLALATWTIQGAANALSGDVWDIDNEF
# B1: 531_1L2_variant3 Fab (Fab, V domains shown)
# VH: EVQLLESGGGLVQPGGSLRLSCAASGYTFTRYWLNWVRQAPGKGLEWIGMIDPSVSETHYADSVKGRATLSVDKSKNTAYLQMNSLRAEDTAVYYCSQIRLPYYYAMDSWGQGTTVTVSS
# VL: DIQMTQSPSSLSASVGDRVTITCRASQDINSFLNWYQQKPGKAVKLLIYYTSRLQSGVPSRFSGSGSGTDYTLTISSLQPEDFATYFCQQGNTLPRTFGGGTKVEIK
# notes: Humanized Fab; The His-tag was removed with TEV protease before SPR
# B2: 531_1L2_variant4 Fab (Fab, V domains shown)
# VH: B1 VH with W33Y
# VL: B1 VL
# notes: as for B1
# B3: 531_1L2_variant6 Fab (Fab, V domains shown)
# VH: B1 VH
# VL: B1 VL with N30S
# notes: as for B1
# B4: 531_1L2_variant8 Fab (Fab, V domains shown)
# VH: B1 VH with W33Y
# VL: B1 VL with N30S
# notes: as for B1
# B5: 531_1L2_variant21 Fab (Fab, V domains shown)
# VH: QVQLVQSGAEVKKPGASVKVSCKASGYTFTRYYLNWVRQAPGQGLEWIGMIDPSVSETHYAQKFQGRATLTVDKSTSTAYMELSSLRSEDTAVYYCSQIRLPYYYAMDSWGQGTTVTVSS
# VL: B1 VL with N30S
# notes: as for B1
# B6: 531_1L2_variant14 Fab (Fab, V domains shown)
# VH: B5 VH with G26D, Y33W, I48M, A68V, L70M, V72R, K74T, A79V
# VL: B1 VL
# notes: as for B1
# B7: 531_1L2_variant16 Fab (Fab, V domains shown)
# VH: B5 VH
# VL: B1 VL
# notes: as for B1
# B8: 531_1L2_variant17 Fab (Fab, V domains shown)
# VH: B5 VH with G26D, Y33W
# VL: B1 VL with N30S
# notes: as for B1
# B9: 531_1L2_variant24 Fab (Fab, V domains shown)
# VH: B5 VH
# VL: B1 VL with N30S, Y71F
# notes: as for B1
# B10: anti-TfR 531v25-Fab-LC-GAA (Fab)
# heavy: QVQLVQSGAEVKKPGASVKVSCKASGYTFTRYYLNWVRQAPGQGLEWIGMIDPSVSETHYAQKFQGRATLTVDKSTSTAYMELSSLRSEDTAVYYCSQIRLPYYYAMDSWGQGTTVTVSSASTKGPSVFPLAPSSKSTSGGTAALGCLVKDYFPEPVTVSWNSGALTSGVHTFPAVLQSSGLYSLSSVVTVPSSSLGTQTYICNVNHKPSNTKVDKKVEPKSC
# light: not shown
# notes: Fab with human GAA fused to the C-terminus of the light chain; also called 531v25Fab-GAA
# B11: anti-TfR 531v25mAb-GAA (antibody, human IgG1, kappa)
# heavy 1: QVQLVQSGAEVKKPGASVKVSCKASGYTFTRYYLNWVRQAPGQGLEWIGMIDPSVSETHYAQKFQGRATLTVDKSTSTAYMELSSLRSEDTAVYYCSQIRLPYYYAMDSWGQGTTVTVSSASTKGPSVFPLAPSSKSTSGGTAALGCLVKDYFPEPVTVSWNSGALTSGVHTFPAVLQSSGLYSLSSVVTVPSSSLGTQTYICNVNHKPSNTKVDKKVEPKSCDKTHTCPPCPAPELLGGPSVFLFPPKPKDTLMISRTPEVTCVVVDVSHEDPEVKFNWYVDGVEVHNAKTKPREEQYNNASRVVSVLTVLHQDWLNGKEYKCKVSNKALPAPIEKTISKAKGQPREPQVCTLPPSRDELTKNQVSLSCAVKGFYPSDIAVEWESNGQPENNYKTTPPVLDSDGSFFLVSKLTVDKSRWQQGNVFSCSVMHEALHNRFTQKSLSLSPG
# heavy 2: not shown
# light: not shown
# Biological target: T3, His-tagged human TfR ectodomain (hTFRC_89-760_G142S; mature protein) (human, UniProt P02786 89-760)
# T3 construct: It carries the G142S haplotype; also called hTfR ectodomain
# Assay: SPR, His-tagged TfR ectodomain captured on anti-His, 1:1 fit
# Description: (§1) Binding of the humanized Fab variants to human, cynomolgus and mouse TfR was assessed using SPR at pH 7.4. Experiments were run on a Bruker MASS-2 instrument with HBS-EP+ as running buffer and sample diluent (Cytiva Life Sciences, #BR100826). HCA sensor chips (Bruker, #1862614) were immobilized with anti-His antibody (His capture kit, Cytiva Life Sciences, #28995056) following manufacturer's instructions. About 10,000 RU of anti-His was obtained. His-tagged hTfR ectodomain (SEQ ID NO: 39), cTfR ectodomain (SEQ ID NO: 40) or mouse TfR ectodomain (SEQ ID NO: 41) (5 μg/ml) was captured for 1 min at 10 μL/min. Concentration series of the humanized Fab variants were then injected for 4 min at 30 μL/min over hTfR surfaces and dissociation was monitored for 5 min. Surface was regenerated with one 1 min pulse of 10 mM glycine-HCl at pH 1.5.
# T3 sequence (P02786 89-760 G142S): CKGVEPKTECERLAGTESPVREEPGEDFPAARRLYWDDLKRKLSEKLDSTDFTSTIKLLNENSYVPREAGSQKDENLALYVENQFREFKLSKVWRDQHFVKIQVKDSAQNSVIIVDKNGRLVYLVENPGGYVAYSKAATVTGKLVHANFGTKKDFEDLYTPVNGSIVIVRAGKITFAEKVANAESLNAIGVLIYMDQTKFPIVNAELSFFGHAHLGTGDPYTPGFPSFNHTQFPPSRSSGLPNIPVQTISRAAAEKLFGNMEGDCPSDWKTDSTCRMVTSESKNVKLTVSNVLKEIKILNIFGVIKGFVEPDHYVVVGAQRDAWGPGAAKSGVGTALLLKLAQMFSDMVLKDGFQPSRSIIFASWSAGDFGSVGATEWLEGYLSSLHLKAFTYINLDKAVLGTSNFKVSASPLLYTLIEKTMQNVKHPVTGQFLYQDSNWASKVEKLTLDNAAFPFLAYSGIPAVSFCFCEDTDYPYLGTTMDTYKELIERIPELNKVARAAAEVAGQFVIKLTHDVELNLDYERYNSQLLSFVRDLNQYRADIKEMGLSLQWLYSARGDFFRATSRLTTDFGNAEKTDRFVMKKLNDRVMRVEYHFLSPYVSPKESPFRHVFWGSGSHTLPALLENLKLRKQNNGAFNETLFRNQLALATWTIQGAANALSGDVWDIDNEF
row,Binder,Kd [nM]
1,B1,183
2,B2,120
3,B3,77.4
4,B4,61.2
5,B5,3.71
6,B6,8.6
7,B7,10.2
8,B8,5.91
9,B9,10.2

# Biological target: T1, His-tagged cynomolgus monkey TfR …
# Assay: as above
# Description: as §1
row,Binder,Kd [nM]
1,B1,204
2,B2,1210
3,B3,300
4,B4,475
5,B5,30.9
6,B6,75.1
7,B7,70.4
8,B8,28.9
9,B9,84.6

# Biological target: T4, hTfR expressed on 300.19 cells (SEQ ID NO: 1) (human, UniProt P02786 1-760)
# T4 construct: Murine pre-B cell line 300.19, stably transfected with a plasmid expressing hTfR; also called human TfR; hTfR-expressing 300.19 cells
# Assay: flow cytometry on hTfR-expressing 300.19 cells
# Description: (§2) The binding kinetics of the four anti-TfR-GAA molecules to hTfR-expressing 300.19 cells and cTfR-expressing 300.19 cells were determined by flow cytometry. 300.19 is a murine pre-B cell line, originating from a lymphoma, and was stably transfected by nucleoporation with a plasmid expressing either hTfR or cTfR (SEQ ID NO: 1 and SEQ ID NO: 2, respectively).
# (§3) 300.19 TFRC-expressing cells were coated at 5×10⁵ cells/well on 96-well High Bind plate (MSD L15XB-3) and 100 μL/well of anti-TfR-GAA molecule were added and incubated for 45 min at 4° C. and washed three times with PBS 1% BSA. […] Antibody binding was evaluated after centrifugation and resuspension of cells by adding 200 μl/well PBS 1% BSA and read using Guava® easyCyte™ 8HT Flow Cytometry System.
row,Binder,EC50 [nM]
1,B10,9.9
2,B11,2.7

# Biological target: T2, cTfR expressed on 300.19 cells (SEQ ID …)
# Assay: flow cytometry; EC50 on cTfR cells against EC50 on hTfR cells
# Description: as §2, §3
row,Binder,Cynomolgus/human ratio (TfR)
1,B10,7.5
2,B11,1

# Biological target: His-tagged mouse TfR ectodomain (mTFRC_89_764; mature protein) (mouse, UniProt Q62351 89-763)
# Assay: SPR, His-tagged mTfR ectodomain captured on anti-His
# Description: as §1
# Sequence of His-tagged mouse TfR ectodomain (mTFRC_89_764; mature protein) (Q62351 other isoform, or with tags, fused parts or gaps): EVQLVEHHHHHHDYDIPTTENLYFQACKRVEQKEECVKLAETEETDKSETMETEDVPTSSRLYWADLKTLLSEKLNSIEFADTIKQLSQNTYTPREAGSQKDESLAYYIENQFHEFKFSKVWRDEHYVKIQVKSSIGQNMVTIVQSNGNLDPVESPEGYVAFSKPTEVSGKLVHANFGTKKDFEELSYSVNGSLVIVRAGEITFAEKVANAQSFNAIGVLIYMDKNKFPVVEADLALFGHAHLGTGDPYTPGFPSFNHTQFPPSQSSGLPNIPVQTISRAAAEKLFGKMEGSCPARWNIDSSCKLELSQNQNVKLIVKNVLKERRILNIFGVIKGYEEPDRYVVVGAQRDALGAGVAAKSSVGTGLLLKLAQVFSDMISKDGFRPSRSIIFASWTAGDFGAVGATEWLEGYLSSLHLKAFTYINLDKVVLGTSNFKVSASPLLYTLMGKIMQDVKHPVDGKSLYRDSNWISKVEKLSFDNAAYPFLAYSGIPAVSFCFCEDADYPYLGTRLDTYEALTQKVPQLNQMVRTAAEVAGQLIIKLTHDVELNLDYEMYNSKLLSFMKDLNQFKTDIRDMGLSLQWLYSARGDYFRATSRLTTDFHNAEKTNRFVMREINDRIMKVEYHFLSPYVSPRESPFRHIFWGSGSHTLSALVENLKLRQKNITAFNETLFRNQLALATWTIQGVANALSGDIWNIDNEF
row,Binder,binding result
1,B1,no binding
2,B2,no binding
3,B3,no binding
4,B4,no binding
5,B5,no binding
6,B6,no binding
7,B7,no binding
8,B8,no binding
9,B9,no binding

# Biological target: T1, His-tagged cynomolgus monkey TfR …
# Assay: SPR; KD on cTfR against KD on hTfR
# Description: as §1
row,Binder,Cynomolgus/human KD ratio
1,B1,1.1
2,B2,10.1
3,B3,3.9
4,B4,7.8
5,B5,8.3
6,B6,8.7
7,B7,6.9
8,B8,4.9
9,B9,8.3

# Biological target: T2, cTfR expressed on 300.19 cells (SEQ ID …)
# Assay: flow cytometry on cTfR-expressing 300.19 cells
# Description: as §2, §3
row,Binder,EC50 [nM]
1,B10,74.6
2,B11,2.6
